From publication PMC4496297

Columns and labels:
[1] = biological target: FimC_(Q19C)-FimH chaperone-adhesin complex, FimC labeled with coumarin maleimide (CPM) (Escherichia coli) (UniProt P31697); assay: other fluorescence titration
[2] = biological target: FimC-FimH (Escherichia coli) (UniProt P31697); assay: SPR; settings: cited from earlier work
[3] = biological target: FimCFimH, where FimC was labeled with the thiol-reactive probe coumarin maleimide (CPM) at Q19C, T51; assay: other fluorescence titration

FimDΔN (purified, His-tag removed) (from UniProt P30130 46-878) (domain or fragment)
Kd [1]: > 1200 nM

FimD (from UniProt P30130)
Kd [2]: 9.1 nM

FimD_(ΔC1ΔC2) (purified, His-tag removed) (from UniProt P30130 46-878) (domain or fragment)
Kd [1]: 389 nM

WT FimD usher (purified, His-tag removed) (from UniProt P30130 46-878) (natural protein)
Kd [3]: 9.5 nM

FimD_(ΔNΔplug) (purified, His-tag removed) (from UniProt P30130 46-878) (domain or fragment)
Kd [1]: 40.8 nM

FimDΔC2 (purified, His-tag removed) (from UniProt P30130 46-878) (domain or fragment)
Kd [1]: 213 nM
